{"source": "patent US20100095387A1", "about": "“METHODS AND REAGENTS FOR SCREENING NEW DRUGS AND FOR TREATING ION PUMP ASSOCIATED DISORDERS AND DISEASES” (priority 2005, published 2010)", "molecules": {"B1": {"name": "C-Ag15: 15-kD COOH-terminal fragment of agrin created by deleting 37 amino acids from the NH2 terminus of C-Ag20, SEQ. ID NO. 3 (protein)", "chain": "MDPWIGKAAERADYMALAIVDGHLQLSYDLASQPVVLRSTVKVNTNRWLRVRAHREHREGSLQVGNEAPVTSSSPLGATQLDTDGALWLGGLQKLPVGQPLPKAYGTGFVGCLRNVVGHRQLHLLEDAVTKPELRPCPTLNSKLGPEQKLISEEDLNSAVDHHHHHH", "modifications": "Synthetically produced sequence"}}, "key": {"[1]": {"system": "cerebellar neurons", "experiment": "Fos expression in cerebellar neurons", "assay_type": "cell-based, mouse", "conditions": "1 nM C-Ag15 with 50 pM C-Ag95z8", "experimental": "Mouse cortical cultures were prepared from newborn or 1-d-old ICR strain mice (Harlan) as described previously (Hilgenberg et al., 1999). For the first 24 h after plating, cells were maintained in neural basal medium (NBM) plus B27 supplements (Invitrogen), and in nonneuronal cell-conditioned NBM (cNBM) plus B27 thereafter, at 37° C. in humidified 5% CO2 atmosphere. To further reduce proliferation of nonneuronal cells, cultures on glass coverslips used for histology were treated with 5 μM 5-fluoro-2-deoxyuridine (Sigma-Aldrich) 3-4 d after plating. Hippocampal and cerebellar cultures were prepared in a similar manner. Experiments were performed on 10-14-d-old cultures. Agrin-deficient neuron cultures were prepared from cortices of embryonic d 18-19 fetuses resulting from matings between mice heterozygous for a mutation in the agrin gene (Gautam et al., 1996). Cultures were prepared and genotyped as described previously (Li et al., 1999), and were maintained as above.\nFos expression in cortical cultures was measured by in situ enzyme-linked immunoassay (Hilgenberg et al., 1999). In brief, 11-14-d-old neuronal cultures were treated for 10 min with agrin or other agent diluted in NBM or PBS, then washed in cNBM and returned to the incubator for 2 h. […] The level of Fos expression was determined by monitoring conversion of p-nitrophenyl phosphate to a soluble yellow reaction product at 405 nm. […]"}, "[2]": {"target": "T1, α3 subunit of the Na+/K+-ATPase (Mus musculus, UniProt Q6PIC6)", "T1 construct": "a 110 kDa band characteristic of the native α3Na+/K+-ATPase; endogenous in cells; host or cells: primary mouse cortical neurons, 10-16 days in culture", "experiment": "Chemical cross-linking of agrin fragments to cortical neurons, immunoprecipitation and immunoblot", "assay_type": "binding", "experimental": "Membrane impermeant chemical cross-linking agents BS^3 and DMA were used to stabilize the bond between agrin and its binding sites on cell surface membranes. Cultured neurons were washed briefly in PBS containing 10 mM EDTA followed by preincubation with one or more agrin fragment in PBS^2+ for 30 minutes at room temperature and then cooled on ice prior to addition of a 10× solution of cross-linking agent to a final concentration of 0.1 mM. The cross-linking reaction was allowed to proceed for 30 minutes after which any unreacted cross-linker was quenched and removed by washing with ice cold PBS^2+ containing 50 mM ethanolamine. For immunoblot analysis, cells were scraped into ice-cold TI buffer (20 mM Tris, pH 7.4; 10 mM EDTA; protease inhibitors (Sigma, P8340)) then Dounce homogenized and membrane fraction recovered by centrifugation. For the immunoprecipitation studies, cells were scraped and homogenized in TI buffer containing 150 mM NaCl and 0.5% Triton X-100. Cell extracts were cleared by centrifugation and aliquots of the detergent soluble fraction incubated with the appropriate antibody at 4° C. overnight. Antigen-antibody complexes were precipitated with either protein A or protein G and resuspended in SDS-PAGE sample buffer for immunoblot analysis.\nLigand induced phosphorylation is a common first step in membrane receptor activation and inhibition of tyrosine kinase activity blocks agrin signalling in central nervous system neurons. To determine if agrin induced phosphorylation of the putative agrin receptor, membranes from neurons cross-linked to C-Ag208 or C-Ag15, alone or in combination, were dissolved, in a detergent-containing buffer and aliquots immunoprecipitated with RAg1 or the phosphotyrosine antibody mAb4G10 (Upstate). Immunoprecipitated proteins were analyzed by immunoblotting with a monoclonal antibody (9E10.2, Invitrogen) against the COON-terminal myc tag on the agrin fragments.\nTo confirm the results of the mass spectrometry the ability of different α-subunit antibodies to recognize the putative agrin-Na^+/K^+-ATPase complex was tested. […]"}, "[3]": {"system": "agrin-deficient neurons", "experiment": "Rescue of glutamate-induced Fos expression in agrin-deficient neuron cultures", "assay_type": "cell-based, mouse", "experimental": "FIG. 6 is a graph showing that the 20-kD COOH-terminal region of agrin is the minimal fragment sufficient to rescue an agrin-deficient phenotype. (A) 10-d-old wild-type (filled bars) or agrin-deficient (open bars) cultures were grown for 2 d in media supplemented to 5 nM with the indicated agrin fragment. Cultures were challenged for 5 min with 100 μM glutamate as described previously (Hilgenberg et al., 2002), and the levels of Fos expression were determined. Data were normalized to levels of glutamate-induced Fos expression in mocktreated wild-type cultures. Compared with mock, glutamate responses of homozygous agrin-deficient neurons were rescued to near wildtype levels by either the long C-Ag95z8/0 or short C-Ag20z8/0 fragments (***, P≦0.0005; **, P≦0.002; *, P≦0.02; paired t test). (B) To test the ability of C-Ag15 to antagonize agrin action, 10-d-old agrin-deficient neurons were maintained for 2 d in the presence of 5 nM C-Ag95z0 alone or in combination with 10 nM C-Ag15, and neuronal responses to glutamate were determined as above. […]\nFos expression in cortical cultures was measured by in situ enzyme-linked immunoassay (Hilgenberg et al., 1999). […] The level of Fos expression was determined by monitoring conversion of p-nitrophenyl phosphate to a soluble yellow reaction product at 405 nm."}, "[4]": {"target": "rat α3 subunit of the Na+/K+-ATPase (Rattus norvegicus, UniProt P06687)", "experiment": "Na+ imaging of non-neuronal cells transfected with pRcα3", "assay_type": "cell-based"}}}
{"molecule": "B1", "values": [{"measurement": "effect on C-Ag95z8-induced Fos expression", "setting": "[1]", "value": "completely inhibited"}, {"measurement": "effect on C-Ag208 binding and phosphorylation", "setting": "[2]; cross-linked in combination with C-Ag208", "value": "blocking both binding and phosphorylation"}, {"measurement": "tyrosine phosphorylation of the cross-linked complex", "setting": "[2]; immunoprecipitation with phosphotyrosine antibody mAb4G10", "value": "did not induce phosphorylation"}, {"measurement": "rescue by C-Ag95z0 blocked", "setting": "[3]; 10 nM C-Ag15 with 5 nM C-Ag95z0 in growth medium", "value": 54, "unit": "%"}, {"measurement": "effect on glutamate-induced expression of c-fos", "setting": "[3]; up to 10 nM, wild-type or heterozygous agrin-deficient neurons", "value": "no effect"}, {"measurement": "antagonism of active agrin fragments", "setting": "[4]", "value": "effective antagonist"}, {"measurement": "intracellular Na+ in cells expressing the α3 subunit", "setting": "[4]", "value": "unaffected"}]}
